Laboratory results from IntAct's records for PubMed 29039417.

B1: Protein PTHB1 (Homo sapiens), Q3SYG4 (parent)
chain: MSLFKARDWWSTILGDKEEFDQGCLCLANVDNSGNGQDKIIVGSFMGYLRIFSPHPAKTGDGAQAEDLLLEVDLRDPVLQVEVGKFVSGTEMLHLAVLHSRKLCVYSVSGTLGNVEHGNQCQMKLMYEHNLQRTACNMTYGSFGGVKGRDLICIQSMDGMLMVFEQESYAFGRFLPGFLLPGPLAYSSRTDSFLTVSSCQQVESYKYQVLAFATDADKRQETEQQKLGSGKRLVVDWTLNIGEQALDICIVSFNQSASSVFVLGERNFFCLKDNGQIRFMKKLDWSPSCFLPYCSVSEGTINTLIGNHNNMLHIYQDVTLKWATQLPHIPVAVRVGCLHDLKGVIVTLSDDGHLQCSYLGTDPSLFQAPNVQSRELNYDELDVEMKELQKIIKDVNKSQGVWPMTEREDDLNVSVVVSPNFDSVSQATDVEVGTDLVPSVTVKVTLQNRVILQKAKLSVYVQPPLELTCDQFTFEFMTPDLTRTVSFSVYLKRSYTPSELEGNAVVSYSRPTDRNPDGIPRVIQCKFRLPLKLICLPGQPSKTASHKITIDTNKSPVSLLSLFPGFASQSDDDQVNVMGFHFLGGARITVLASKTSQRYRIQSEQFEDLWLITNELILRLQEYFEKQGVKDFACSFSGSIPLQEYFELIDHHFELRINGEKLEELLSERAVQFRAIQRRLLARFKDKTPAPLQHLDTLLDGTYKQVIALADAVEENQGNLFQSFTRLKSATHLVILLIALWQKLSADQVAILEAAFLPLQEDTQELGWEETVDAAISHLLKTCLSKSSKEQALNLNSQLNIPKDTSQLKKHITLLCDRLSKGGRLCLSTDAAAPQTMVMPGGCTTIPESDLEERSVEQDSTELFTNHRHLTAETPRPEVSPLQGVSE
partner: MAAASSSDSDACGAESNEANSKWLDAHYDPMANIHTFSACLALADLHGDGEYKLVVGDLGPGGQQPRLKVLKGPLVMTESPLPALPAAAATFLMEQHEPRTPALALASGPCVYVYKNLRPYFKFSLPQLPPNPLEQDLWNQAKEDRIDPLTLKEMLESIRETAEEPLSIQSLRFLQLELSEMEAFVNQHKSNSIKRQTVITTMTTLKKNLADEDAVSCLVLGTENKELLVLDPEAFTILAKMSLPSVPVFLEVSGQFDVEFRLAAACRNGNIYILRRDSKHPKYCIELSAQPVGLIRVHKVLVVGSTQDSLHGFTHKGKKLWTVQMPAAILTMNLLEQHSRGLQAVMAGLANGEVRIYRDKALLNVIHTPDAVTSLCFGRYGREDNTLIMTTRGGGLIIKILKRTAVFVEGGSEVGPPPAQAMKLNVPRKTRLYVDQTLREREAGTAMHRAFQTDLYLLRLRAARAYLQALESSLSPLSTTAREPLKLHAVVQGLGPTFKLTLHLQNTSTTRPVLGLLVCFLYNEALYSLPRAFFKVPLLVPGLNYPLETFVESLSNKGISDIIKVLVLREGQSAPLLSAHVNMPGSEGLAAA

Variants of: B1
Details: with bbs1_human BBS1, Q8NFJ9

Variant	effect of a mutation on the interaction
T595E	with no effect
E644K	with no effect
D422K	with no effect
V577E	with no effect
G701K	with no effect
D608K	with no effect
L766K	with no effect
P464K	with no effect
G841A	with no effect
K526A	with no effect
R514A	with no effect
Y460E	with no effect
P556E	with no effect
D711K	with no effect
D711E	with no effect
Q643E	with no effect
I707K	with no effect
L699K	disrupting interaction strength
S568G	disrupting interaction strength
E604V	disrupting interaction strength
L436K	with no effect
Q858A	with no effect
D573K	with no effect
G518A	with no effect
K454A	with no effect
S458A	with no effect

Variant	effect of a mutation on the interaction
F646A	with no effect
F721S	disrupting interaction strength
Q764E	with no effect
C535A	with no effect
G565K	with no effect
G565P	disrupting interaction strength
L457A	with no effect
R674K	with no effect
R674P	disrupting interaction strength
T871E	with no effect
P691A	with no effect
T829A	with no effect
T813E	with no effect
V734A	with no effect
S635K	with no effect
T782K	with no effect
V629A	with no effect
A592V	disrupting interaction strength
R854A	with no effect
N866K	with no effect
R600E	with no effect
R600A	with no effect
S855A	with no effect
A746E	with no effect
A831E	with no effect
D686K	with no effect

Variant	effect of a mutation on the interaction
N658K	with no effect
S723E	with no effect
P758K	with no effect
L616P	disrupting interaction strength
G433A	with no effect
N716K	with no effect
N716E	with no effect
R407A	with no effect
Q627A	with no effect
I801K	with no effect
T688E	with no effect
D830K	with no effect
D571K	with no effect
L411E	with no effect
T473K	with no effect
D773K	with no effect
S849E	with no effect
S828E	with no effect
L784K	with no effect
I846K	with no effect
T874K	with no effect
F487K	with no effect
H732E	with no effect
A670V	disrupting interaction strength
R679W	disrupting interaction strength
F606A	with no effect

Variant	effect of a mutation on the interaction
F606K	with no effect
F606E	with no effect
I751K	with no effect
S777K	with no effect
Q742L	disrupting interaction strength
L692R	disrupting interaction strength
T725E	with no effect
P847A	with no effect
E501A	with no effect
E501K	with no effect
S541A	with no effect
A710E	with no effect
Q462T	disrupting interaction strength
Q807E	with no effect
L759K	with no effect
F527K	with no effect
I738K	disrupting interaction strength
D650E	with no effect
Q605E	with no effect
Q605K	with no effect
Q883E	with no effect
W741A	with no effect
W741K	with no effect
T478A	with no effect
L709A	with no effect
L851A	with no effect

Variant	effect of a mutation on the interaction
S494E	with no effect
E715K	with no effect
T405E	with no effect
T549E	with no effect
Q693A	with no effect
T702E	with no effect
K661A	with no effect
E853K	with no effect
F673A	with no effect
L560A	with no effect
R619K	with no effect
Q621K	with no effect
Q621E	with no effect
S509E	with no effect
L815A	with no effect
R818K	with no effect
V671K	with no effect
Q705A	with no effect
D700E	with no effect
S787A	with no effect
Y495A	with no effect
P419A	with no effect
E857A	with no effect
H651T	disrupting interaction strength
S667F	disrupting interaction strength
P516E	with no effect

Variant	effect of a mutation on the interaction
P516K	with no effect
I548K	with no effect
I617K	with no effect
R587K	with no effect
W768E	with no effect
L882K	with no effect
L882E	with no effect
H546E	with no effect
D517A	with no effect
S561K	with no effect
S561A	with no effect
D572E	with no effect
R876E	with no effect
G538K	with no effect
L583A	with no effect
H811E	with no effect
Q597A	with no effect
S558E	with no effect
E761A	with no effect
Q569A	with no effect
W610K	with no effect
D747A	with no effect
T763E	with no effect
Y645E	with no effect
N719K	with no effect
C816K	with no effect

Variant	effect of a mutation on the interaction
L591K	with no effect
L591A	with no effect
R726E	with no effect
R726K	with no effect
T543E	with no effect
T441K	with no effect
S498K	with no effect
C783K	with no effect
C783E	with no effect
L533E	with no effect
S820K	with no effect
L863E	with no effect
A708E	with no effect
I451A	with no effect
G842A	with no effect
D551A	with no effect
L819K	disrupting interaction strength
P520A	with no effect
R483K	with no effect
S425E	with no effect
S425K	with no effect
L559A	with no effect
T613K	with no effect
